Substrate: Nc1ncnc2c1ncn2[C@@H]1O[C@H](COP(=O)(O)OP(=O)(O)OP(=O)(O)O)[C@@H](O)[C@H]1O
Assay: purified protein
Settings: varied substrate not named in table (text: substrates ATP and AMP)

B1: AKeco (Escherichia coli K-12; K47A) (protein)
chain: MRIILLGAPGAGKGTQAQFIMEKYGIPQISTGDMLRAAVKSGSELGAQAKDIMDAGKLVTDELVIALVKERIAQEDCRNGFLLDGFPRTIPQADAMKEAGINVDYVLEFDVPDELIVDRIVGRRVHAPSGRVYHVKFNPPKVEGKDDVTGEELTTRKDDQEETVRKRLVEYHQMTAPLIGYYSKEAEAGNTKYAKVDGTKPVAEVRADLEKILG
Q: What does the source list for B1?
A: Km: 116 ± 8 µM; kcat: 464 s⁻¹; kcat/Km: 4e+06 M⁻¹ s⁻¹

— article PMC12548092, “Exploring Helical Fraying Linked to Dynamics and Catalysis in Adenylate Kinase” (Biochemistry, 2025)
